In the nanobody polyreactivity screen of Harvey et al. (2022):

Test: yeast display, Sf9 membrane polyspecificity reagent, FACS + sequencing; frameworks hold sequencing errors
Method in brief: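 Nanobodies came from a synthetic yeast display library in Saccharomyces cerevisiae BJ5465, induced with galactose for 36–48 hours and stained for 1 hour at 4 °C with 10% biotinylated, detergent-solubilized Sf9 membrane reagent. Cells were enriched on streptavidin microbeads and then FACS-sorted, with low and high (top ~1%) gates set on anti-HA fluorescence for expression and streptavidin fluorescence for reagent binding. Each polyreactivity label reflects the gate a clone came from. Genes were amplified by colony PCR, sequenced by MiSeq 2 × 250 and filtered by CDR length.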

Row | Sequence | polyreactivity (PSR sort gate)
1 | QVQLVESGGCLVQAGGTLRLSCAASGRTFIVYSMGWYRPAPGKERELVAAITTSVGRTYYADSVKGRFTISRDNAKNTVFLQMISLKPEDTAVYYCADDLLDGYSEYSYWGQGTQVTVSS | low polyreactivity
2 | QVQLVESGGCLVQAGRSHRLSCAASGRIFYGYALGWYRQAPGKERELVAAITRSSSTYYADSVKGRFTISRDNAKNTVYLQMNSLKPEDTAVYYCNAYSWYGYDYWGQGTQVTVSS | high polyreactivity
3 | QVQLVESGGCLVQAGRSLRLRCAASARTIGSNAMGCYRQAPGKARELVDAISSRGGSTYYADSVKGRITISRDNAKNTVYLQMNSLYPEDTAVYYCDSEYYPHTTYLSDNWGQGTQETVSS | high polyreactivity
4 | QVQLVESGGCLVQARGSLRLSCASSGSTFGRNAMGWYRQAPGKERELVASISRRGGSTYYADSVKGRFTISRDNAKNTVYLQMNSLKPEDTAVYYCNRVQFSPVYRFREYDYWGQGTQVTVSS | high polyreactivity
5 | QVQLVESGGDLVQAGGSLRLSCAASGITFYVNTMGSYRPAPGKERELVAAIDWTDGGTYYADSVKGRFTISRDNAKNTVYLQMNSLKPEDTAVYYCAREYYWDIKGLYGYLAYDLDYWGQGSQVTVSS | low polyreactivity
6 | QVQLVESGGGFDQAGGSLRLSCAASGSIFSGYAMGWYRQAPGKETELVAAINWSGGRTYYADSVKGRFTISRDNEKNTVYLQMKSLKPEDTAVYYCAAAGARSIYRMDYWGQGTQVTVSS | high polyreactivity
7 | QVQLVESGGGFFQAGGSLRLSCAASGSTFVYNAMGWYRQAPGKERELVAAISRNGGRTYYADSVKGRFTISRDNAKNTVYFQMNSLKPEDTAVYYCAADYRVQLRKEYDYWGQGTQVTVSS | high polyreactivity
8 | QVQLVESGGGFVQAGGSLGLSCAASGSIFFVYAMGWYRQAPGKERELVADSTNGGDRNYADSVKGRFTISREHAKNTVYLQMHSLKPEDTAVYDCNARYYGYRSWLEAYNRGDYWGQATQVTVSS | high polyreactivity
9 | QVQLVESGGGFVQAGGSLRFSCAASGRIFPGYAMGWYRQAPGKERELVAAISASGGSTYDADSVKGRFTISRDNAKNPVYLQMNSLKPEDPAVYYCNAVYRLIRFDYWGQGTQVTVSS | high polyreactivity
10 | QVQLVESGGGFVQAGGSLRISCAASGSTIGGNGKGWYRQAPGKEREIVATITWPSGSTYYADSVKGRFTISRDNAKNTVYLQMKSLKPEDTAVYYCAKNTSSRRNPWYYYWGQGTQVTVSS | high polyreactivity
11 | QVQLVESGGGFVQAGGSLRLSCAASGFIFNRNAMGWYRQAPGKERELVAAISRSGGRTYYADSVKGRFTISRDTAKNTDYFQMNSLKPEDTAVYSCATEGYDGEFDYWGQGTQVTVSS | high polyreactivity
12 | QVQLVESGGGFVQAGGSLRLSCAASGFTFTSYAMGWYRQAPGKEREFVAAIRRSGSGTNYADSVKGRFTISRDNAKNTVYLQLNSLKPEDTAVYYCAAEQWGWYWYDYWGQGTQVTVSS | high polyreactivity
13 | QVQLVESGGGFVQAGGSLRLSCAASGLSFNFNAMGWYRQAPGKERELVAAIDSGGDTNYADSVKGRFSISRDNEKNTVYLQMNSLKPEDTAVYYCNTDRYPYAFEYWGQGTQVTVSS | low polyreactivity
14 | QVQLVESGGGFVQAGGSLRLSCAASGLTFWPYVMGWYRQAPGKERELVAAIDDTGITYYADSVKGRFTISRDNAKNTVYLQMNSLKPEDTAVYYCATDWDYYFPWIYPSDAGPEDGYWGQGTQVTVSS | low polyreactivity
15 | QVQLVESGGGFVQAGGSLRLSCAASGRIFKQYGIGWYRQAPGKERELVAAIRSGDSTNYADSVKGRFTISRDNAKNTVYLQMNSLKPEDTAVYYCARDRPGDYAGYDYWGQGTQVTVSS | low polyreactivity
16 | QVQLVESGGGFVQAGGSLRLSCAASGRIFPEYSRGWYRQAPGKERELVASINSDGSTNYADSVKGRFTISRDNAKNTVYLQMNSLKPEDTAVYYCATEGSGTGIFISKFDYWGQGTQVTVSS | low polyreactivity
17 | QVQLVESGGGFVQAGGSLRLSCAASGRIFTRYAMGWYRQAPGKERELVASISWSGDGTYYADSVKGRFTISRDNAKNTVYLQMNSLKPDDTAVYYCAARYGTVVPGQVRWYGYGYWGQGTQVTVSS | high polyreactivity
18 | QVQLVESGGGFVQAGGSLRLSCAASGRNFFSNAMGWYRQAPGNEWELVASITSRGGTTYYADSVKGRFTISSYNAKNPVYLQMNSVKPEDTAVYYCAALRRSYFGYWGQVTQVTVSS | high polyreactivity
19 | QVQLVESGGGFVQAGGSLRLSCAASGRTFQFYAMGWYRQAPGKERELVAAITYSGDSTYYADSVKGRFTISRDNAKNTVYLQMNSLKPEDTAVYYCAAGVWFYWYEYDYWGQGTQVTVSS | high polyreactivity
20 | QVQLVESGGGFVQAGGSLRLSCAASGSIFDYYTMGWYRQAPGKEREFVAGISDSGGSTNYADSVKGRFTISRDNAKNTVYLQMNSLKPEDTAVYYCNAEYVGWFYKYDYWGQGTQVTVSS | high polyreactivity
21 | QVQLVESGGGFVQAGGSLRLSCAASGSIFGSYAMGWYRQAAGKERELVPDISSGGSTNYADSVKGRFTISRDNAKYTVYLQMNSLKPEDTAVYYCNADDPAGYLYWWGSWLESDYWGQGTQVTVSS | low polyreactivity
22 | QVQLVESGGGFVQAGGSLRLSCAASGSIFRFYAMGWYRQAPGKERELVASITSGGSTNYADSVKGRFTISRDNAKNTVYLQMNSLKPEDTAVYYCAVRLKGYRRRDYWGQGTQVTVSS | high polyreactivity

Row | Sequence | polyreactivity (PSR sort gate)
23 | QVQLVESGGGFVQAGGSLRLSCAASGSIFVKYAMGWYRQAPGTERELVAAISRSGDSTYYADSVKGRFTLSRDNAKNTVYLQMNSLNPEDTAAYSCAAYSGYGGVSMYYWGQGTQVTVSS | low polyreactivity
24 | QVQLVESGGGFVQAGGSLRLSCAASGSIFWTYAMGWYRPAPGNERELVATIPYSDGNTYYADSVKGRFTISRDHAKNTVYLQMNSLKPEDTAVYYGAADTVPDWQEYDYWGQGTQVTVSS | low polyreactivity
25 | QVQLVESGGGFVQAGGSLRLSCAASGSTFAYYTMGWYRQAPGKERELVAASYGAGGSTYYADSVKGRFTISRDNAKNTVYLQRNSLIPEDTAVYYCNVVVSVHISVSQYDYWGQGTQVTVSS | high polyreactivity
26 | QVQLVESGGGFVQAGGSLRLSCAASGSTFSVYAMGWYRQAPGKERELVATIRRGGSTYADSVKGRFTISRDNAKNTVYLQMNSLKPEDTAVYDCAADAYVSSQPMDYWGQGTQVTVSS | high polyreactivity
27 | QVQLVESGGGFVQAGGSLRLSCAGSGSTFTSYAMGWYRQAPGKERELVASIRSTSGRTYYADSVKGRFTISRDNAKNTVYLQMNSQKPQDTAVYYCAAATYGTWWTYADNPYDYWGQGTQGTVSS | high polyreactivity
28 | QVQLVESGGGFVQAGGSLRLSCPPSGRIIQAYAMAWYRQSPGKERELVAAISRSGGGTYYADSVKVRFTISRDNAKNTVYFLMNSLKPEDTAVSYCNAYYYYYTARWTQVNYWGQGTQVTVSS | high polyreactivity
29 | QVQLVESGGGFVQAGGSLRLSFAASGFTFGRYAMGWYIQAPGKERELVAAISWSDGSTYYADSVKGRFTISRDNAKNTVYLQMNSLKPQDTAVYYCAARYGGGISQAKYYYWGQGTQVTVSS | high polyreactivity
30 | QVQLVESGGGFVQARGSLRLSCAACGRTYFPNAMGWYRQAPGKERELVAAITTSGGITYYADSVKGRFTISRDNAKNTVYLQMNSLKPEDTAVYYCATEWRTTGYRYYYWGQGTQVTVSS | high polyreactivity
31 | QVQLVESGGGIDQAGGSLRLSCAASAFTLINYAMAWYRQAPGKERELVAAISQSGGSTYYADSVKGRFTISSDNAKNTVYLQMNSLKPEDTAVYYCNARRRGWGWTIGYVWRDDYWGQGTQVTVSS | high polyreactivity
32 | QVQLVESGGGIFQAGGSLRLSCAASGRIYNYYAMGWTRQAPGQEREFVAAITRSGGRPYYADSVKGRFTISRDKGKNTVYLLMNSLKPEDTAVYYFAAPFGTYAYDYWGQGTLVTVSS | high polyreactivity
33 | QVQLVESGGGIFQAGGSLRLSCSASGFTLQGYAMVWSRQAPGKERELVAAISWSGGSTYYADSVKGRFTISRDNAKNTVYLQMNSLKPEDTAVYYCAAETYFAEYWGQGTQVTVSS | high polyreactivity
34 | QVQLVESGGGILQAGGSLRLSCAASGFISSVNAMGWYRQATGKERELVAAISDSATSTYYADSVKGRFTISRDNAKNTVYLQMNSLKPVDTALYYCAAYSHYVGYEYWGQGTQVTVSS | high polyreactivity
35 | QVQLVESGGGILQAGGSLRLSCAASGITFVVYAMGCYRQAPGKERELVDSITYSGGSTYYADSVKGRFTISRDNAKNTVYLQMISLKPEDTAFYYCNADGYSIYYLPYSDYDAYDYWGQGTQVTVSS | low polyreactivity
36 | QVQLVESGGGIVEAGVSLRLRGAASGGSFKSKAMVWYRQAPGNEREFVAAISSSGGSTYYADSVKGRFTISRDNAKNTVYLLMNILKPEDTAVYYCAADDYGYPYLSYDYWGQGTQVTVSS | high polyreactivity
37 | QVQLVESGGGIVQACGSLRLSCAASGFTFYVYAMGWYRKAPGKEREFVAAISKSGGRTYYADSVMGRFTISRDNAKNTVYLQMNSLKPEDTAVYYCGRYNRYQIIYPGFDYWGQGTQVTVSS | high polyreactivity
38 | QVQLVESGGGIVQAGGRLRLSCAASGNTFQDYAMGWYRQAPGKERELVAAINSGGSTNYADSVKGRFTISRDNAKNTVYLQMNSLKPEDTAVYYCAAEPGEGFDYWGQGTQVTVSS | low polyreactivity
39 | QVQLVESGGGIVQAGGSLRISCAASGYNFRYNAMGWYRQAPGKERELVATITRGGSTNYPDSVKGRFTISRDNAKNTVYLQMNSMKPEDTAVYYCKKEAAPLGFVPSYYGRDYWGQGTQVTVSS | low polyreactivity
40 | QVQLVESGGGIVQAGGSLRLRCAASGFTFERYSMGWYRQAPGKERELVATITRRSGRTSYADSVKGRFTISRDNATNTVYLQMNRLKPEDTAVYYCAVDDAYPDRYDYWGQGTQVTVSS | high polyreactivity
41 | QVQLVESGGGIVQAGGSLRLRCAASGSTFNKYAMGWYRQAPGKERELVAAISGGGRTNYADSVKGRFTISRDNAKNTVYLQMNSLKPEDTAVYSCARPSPHKGYDYWGQGTQVTVSS | high polyreactivity
42 | QVQLVESGGGIVQAGGSLRLRCAASGSTFYLNVMGWYRQAPGQERELVAAISSGDGSTYYADSVKGRFTISRDNAKNTVYLQMNSLKPEDTAVYYCAAEPDTEVDYDYWGQGTQVTVSS | low polyreactivity
43 | QVQLVESGGGIVQAGGSLRLSCAASAIIFLDNPMGWSRQAPGKERELVADITSSGGSTYYADSVKGRFTISRDNAKNTVSLQMNSLKPEDTAVYYCAKYVYGKFDGVRFSYDYWGQGTQVTVSS | low polyreactivity
